Reference: patent US20130302347A1 (Genentech, published 2013)

Experiments:
Experiment in all cases: SPR screen of TNF-like ligands
BAFF = BAFF (UniProt Q9Y275 134-285, limits assumed)
Description: (§1) Surface plasmon resonance (SPR) was run on a BiaCore 3000 (GE healthcare, Piscataway, N.J.) at 25° C. using anti-human IgG F(ab′)₂ (Jackson Immunoresearch, West Grove, Pa.) amine-coupled to BiaCore CM5 sensor chips. For kinetic analysis of protein interactions, Fc-fusion proteins at 25 μg/ml were first captured onto sensor chips by injecting them for 3 min at 5 μl/min. Then, test proteins diluted to their indicated concentrations in HBS-P buffer (0.01 M Hepes, pH 7.4 0.15 M NaCl 0.005% Surfactant P20) were injected for 3 min at 30 μl/min. Dissociation in HBS-P buffer alone was then measured at a flow rate of […]. Sensor chips surfaces were regenerated by injecting 10 mM glycine pH 1.5 for 30 s after each cycle. Kinetic parameters were determined by fitting the data to a 1:1 Langmuir model using the Biacore 3000 evaluation software (GE Healthcare).

RANKL = biological target: T1, RANKL (UniProt O14788 140-317, limits assumed)
T1 sequence (looked up): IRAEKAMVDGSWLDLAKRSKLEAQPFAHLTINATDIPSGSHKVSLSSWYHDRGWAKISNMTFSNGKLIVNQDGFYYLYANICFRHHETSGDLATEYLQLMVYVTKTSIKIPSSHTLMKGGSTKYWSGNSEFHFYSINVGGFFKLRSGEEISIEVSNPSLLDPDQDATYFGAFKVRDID
Description: as §1

LTα = biological target: T2, LTα (UniProt P01374 35-205)
T2 sequence (looked up): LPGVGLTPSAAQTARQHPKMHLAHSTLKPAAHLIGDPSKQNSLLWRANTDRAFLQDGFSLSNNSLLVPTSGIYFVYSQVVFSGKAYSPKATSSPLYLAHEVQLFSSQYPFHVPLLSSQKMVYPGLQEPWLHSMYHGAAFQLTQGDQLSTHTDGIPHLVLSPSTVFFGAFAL
Description: as §1

TRAIL = TRAIL (UniProt P50591 114-281)
TRAIL, sequence (P50591 114-281 limits assumed): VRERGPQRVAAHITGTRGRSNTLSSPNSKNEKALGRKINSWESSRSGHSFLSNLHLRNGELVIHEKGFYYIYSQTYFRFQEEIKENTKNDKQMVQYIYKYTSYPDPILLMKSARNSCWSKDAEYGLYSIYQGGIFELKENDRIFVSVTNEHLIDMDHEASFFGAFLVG
Description: as §1

4-1 BBL = 4-1 BBL (UniProt P41273 71-254, limits assumed)
4-1 BBL, sequence (P41273 71-254 limits assumed): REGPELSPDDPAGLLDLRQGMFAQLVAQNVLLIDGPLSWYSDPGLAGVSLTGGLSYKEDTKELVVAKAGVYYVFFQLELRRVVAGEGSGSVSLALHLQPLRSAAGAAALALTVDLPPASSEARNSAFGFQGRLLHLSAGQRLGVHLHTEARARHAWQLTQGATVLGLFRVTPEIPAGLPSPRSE
Description: as §1

APRIL = biological target: T3, APRIL (UniProt O75888 105-250, limits assumed)
T3 sequence (looked up): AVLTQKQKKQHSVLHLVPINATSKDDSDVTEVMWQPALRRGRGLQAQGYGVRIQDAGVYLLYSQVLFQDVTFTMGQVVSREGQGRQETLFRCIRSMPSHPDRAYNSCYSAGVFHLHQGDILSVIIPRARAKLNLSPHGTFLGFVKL
Description: as §1

FasL = biological target: T4, FasL (UniProt P48023 134-281)
T4 sequence (looked up): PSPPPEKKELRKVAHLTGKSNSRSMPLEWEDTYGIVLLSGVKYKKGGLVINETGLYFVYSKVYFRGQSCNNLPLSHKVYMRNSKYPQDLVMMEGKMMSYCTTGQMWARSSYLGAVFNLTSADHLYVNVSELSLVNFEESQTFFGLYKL
Description: as §1

EDA-A1 = biological target: T5, EDA-A1 (UniProt Q92838 245-391, limits assumed)
T5 sequence (looked up): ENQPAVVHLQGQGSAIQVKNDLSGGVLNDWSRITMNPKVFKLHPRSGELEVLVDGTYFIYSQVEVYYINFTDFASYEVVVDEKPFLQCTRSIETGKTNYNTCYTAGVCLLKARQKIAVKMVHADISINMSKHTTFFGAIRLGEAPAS
Description: as §1

CD27L = biological target: T6, CD27L (UniProt P32970 39-193, limits assumed)
T6 sequence (looked up): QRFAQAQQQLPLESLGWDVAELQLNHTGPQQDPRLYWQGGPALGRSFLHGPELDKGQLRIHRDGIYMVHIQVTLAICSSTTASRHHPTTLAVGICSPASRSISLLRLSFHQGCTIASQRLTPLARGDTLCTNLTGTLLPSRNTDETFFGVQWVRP
Description: as §1

CD30L = biological target: T7, CD30L (UniProt P32971 63-234)
T7 sequence (looked up): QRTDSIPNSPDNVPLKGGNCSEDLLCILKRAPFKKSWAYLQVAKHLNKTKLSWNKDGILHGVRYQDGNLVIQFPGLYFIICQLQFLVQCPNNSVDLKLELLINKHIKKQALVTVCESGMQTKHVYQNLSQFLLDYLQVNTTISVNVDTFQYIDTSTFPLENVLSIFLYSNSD
Description: as §1

TNFα = TNFα (UniProt P01375 77-233)
TNFα, sequence (P01375 77-233 limits assumed): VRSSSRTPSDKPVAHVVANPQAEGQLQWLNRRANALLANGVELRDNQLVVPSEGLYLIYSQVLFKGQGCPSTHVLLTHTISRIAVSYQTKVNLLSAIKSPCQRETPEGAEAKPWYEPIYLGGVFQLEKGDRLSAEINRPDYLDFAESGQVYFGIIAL
Description: as §1

TNFSF14 = TNFSF14 (UniProt O43557 74-240, limits assumed)
TNFSF14, sequence (O43557 74-240 limits assumed): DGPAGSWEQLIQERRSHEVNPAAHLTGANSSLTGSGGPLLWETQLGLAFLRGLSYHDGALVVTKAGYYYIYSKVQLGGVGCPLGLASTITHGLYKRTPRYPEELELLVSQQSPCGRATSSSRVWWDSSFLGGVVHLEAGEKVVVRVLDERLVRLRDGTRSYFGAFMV
Description: as §1

TL1A = biological target: T8, TL1A (UniProt O95150 72-251)
T8 sequence (looked up): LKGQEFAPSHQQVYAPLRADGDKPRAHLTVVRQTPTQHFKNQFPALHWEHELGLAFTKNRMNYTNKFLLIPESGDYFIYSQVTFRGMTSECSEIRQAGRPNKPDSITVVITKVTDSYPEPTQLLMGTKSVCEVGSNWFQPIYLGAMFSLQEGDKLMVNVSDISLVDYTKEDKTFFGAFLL
Description: as §1

Measured: binding result

BAFF, sequence (Q9Y275 134-285 limits assumed): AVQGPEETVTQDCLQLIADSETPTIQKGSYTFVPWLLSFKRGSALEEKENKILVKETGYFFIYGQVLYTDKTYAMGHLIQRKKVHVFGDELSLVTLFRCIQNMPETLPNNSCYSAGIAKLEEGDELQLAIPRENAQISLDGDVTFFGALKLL

B1: TMEM149-Fc (human TMEM149 extracellular domain with C-terminal human IgG1 Fc) (Fc fusion)
chain: SQYCGRLEYWNPDNKCCSSCLQRFGPPPCPDYEFRENCGLNDHGDFVTPPFRKCSSGQCNPDGAELCSPCGGGAVTPTPAAGGGRTPWRCRERPVPAKGHCPLTPGNPGAPSSQERSSPASSIAWRTPEPVPQQAWPN
notes: also called recombinant human TMEM149-Fc; Fc-TMEM149; not shown: human IgG1 Fc, C-terminal
no binding: all assays above
